Measurements taken from patent US20150344570A1 (published 2015).

B1: GpH7-B3 variant S239_01G/GpL16-k0 (antibody, human IgG1, kappa)
heavy: not shown
light: DIVMTQSPLSLPVTPGEPASISCQASESLVHSNRNTYLHWYLQKPGQSPQLLIYKVSNRFSGVPDRFSGSGSGTDFTLKISRVEAEDVGVYYCSQNTHVPPTFGQGTKVEIERTVAAPSVFIFPPSDEQLKSGTASVVCLLNNFYPREAKVQWKVDNALQSGNSQESVTEQDSKDSTYSLSSTLTLSKADYEKHKVYACEVTHQGLSSPVTKSFNRGEC
notes: also called Ho Ab S239_01G
B2: GpH7-B3 variant S337_19Q/GpL16-k0 (antibody, human IgG1, kappa)
heavy: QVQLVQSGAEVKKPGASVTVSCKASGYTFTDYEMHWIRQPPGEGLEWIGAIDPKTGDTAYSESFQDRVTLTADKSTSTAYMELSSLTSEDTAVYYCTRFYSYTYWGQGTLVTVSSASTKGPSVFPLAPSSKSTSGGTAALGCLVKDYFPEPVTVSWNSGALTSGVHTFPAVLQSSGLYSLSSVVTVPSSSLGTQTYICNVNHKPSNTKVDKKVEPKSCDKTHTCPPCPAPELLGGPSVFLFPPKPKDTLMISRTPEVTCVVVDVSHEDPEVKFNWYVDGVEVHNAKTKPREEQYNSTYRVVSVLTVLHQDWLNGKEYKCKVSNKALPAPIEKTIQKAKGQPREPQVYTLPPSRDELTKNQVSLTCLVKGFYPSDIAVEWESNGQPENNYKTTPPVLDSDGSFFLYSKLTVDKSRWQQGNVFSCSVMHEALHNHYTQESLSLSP
light: B1 light
notes: also called Ho Ab S337_19Q
B3: GpH7-B3 variant S337_10E/GpL16-k0 (antibody, human IgG1, kappa)
heavy: not shown
light: B1 light
notes: also called Ho Ab S337_10E
B4: GpH7-B3 variant S324_12R/GpL16-k0 (antibody, human IgG1, kappa)
heavy: not shown
light: B1 light
notes: also called Ho Ab S324_12R
B5: GpH7-B3 variant S337_02A/GpL16-k0 (antibody, human IgG1, kappa)
heavy: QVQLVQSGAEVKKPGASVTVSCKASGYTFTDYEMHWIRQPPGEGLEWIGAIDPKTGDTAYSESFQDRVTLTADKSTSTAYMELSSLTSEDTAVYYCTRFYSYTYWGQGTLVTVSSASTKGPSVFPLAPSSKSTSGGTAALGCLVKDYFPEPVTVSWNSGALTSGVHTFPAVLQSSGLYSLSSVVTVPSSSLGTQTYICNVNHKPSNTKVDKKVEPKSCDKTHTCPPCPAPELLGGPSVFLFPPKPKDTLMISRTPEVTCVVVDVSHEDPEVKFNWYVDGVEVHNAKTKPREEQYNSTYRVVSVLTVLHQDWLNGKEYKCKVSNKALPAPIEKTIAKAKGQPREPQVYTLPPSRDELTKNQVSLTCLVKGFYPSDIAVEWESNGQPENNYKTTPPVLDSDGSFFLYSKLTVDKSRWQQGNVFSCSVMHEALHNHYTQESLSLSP
light: B1 light
notes: also called Ho Ab S337_02A
B6: GpH7-B3 variant S324_18N/GpL16-k0 (antibody, human IgG1, kappa)
heavy: not shown
light: B1 light
notes: also called Ho Ab S324_18N
B7: GpH7-B3 variant S298_10E/GpL16-k0 (antibody, human IgG1, kappa)
heavy: not shown
light: B1 light
notes: also called Ho Ab S298_10E
B8: GpH7-B3 variant S337_01G/GpL16-k0 (antibody, human IgG1, kappa)
heavy: not shown
light: B1 light
notes: also called Ho Ab S337_01G
B9: GpH7-B3 variant S298_04F/GpL16-k0 (antibody, human IgG1, kappa)
heavy: not shown
light: B1 light
notes: also called Ho Ab S298_04F
B10: GpH7-B3 variant S324_03V/GpL16-k0 (antibody, human IgG1, kappa)
heavy: not shown
light: B1 light
notes: also called Ho Ab S324_03V
B11: GpH7-B3 variant S324_14T/GpL16-k0 (antibody, human IgG1, kappa)
heavy: not shown
light: B1 light
notes: also called Ho Ab S324_14T
B12: GpH7-B3 variant S298_07I/GpL16-k0 (antibody, human IgG1, kappa)
heavy: not shown
light: B1 light
notes: also called Ho Ab S298_07I
B13: GpH7-B3 variant S337_07I/GpL16-k0 (antibody, human IgG1, kappa)
heavy: not shown
light: B1 light
notes: also called Ho Ab S337_07I
B14: GpH7-B3 variant S337_20W/GpL16-k0 (antibody, human IgG1, kappa)
heavy: not shown
light: B1 light
notes: also called Ho Ab S337_20W
B15: GpH7-B3 variant S337_04F/GpL16-k0 (antibody, human IgG1, kappa)
heavy: not shown
light: B1 light
notes: also called Ho Ab S337_04F
B16: GpH7-B3 variant S267_03V/GpL16-k0 (antibody, human IgG1, kappa)
heavy: not shown
light: B1 light
notes: also called Ho Ab S267_03V
B17: GpH7-B3 variant S337_03V/GpL16-k0 (antibody, human IgG1, kappa)
heavy: not shown
light: B1 light
notes: also called Ho Ab S337_03V
B18: GpH7-B3 variant S298_01G/GpL16-k0 (antibody, human IgG1, kappa)
heavy: not shown
light: B1 light
notes: also called Ho Ab S298_01G
B19: GpH7-B3 variant S337_12R/GpL16-k0 (antibody, human IgG1, kappa)
heavy: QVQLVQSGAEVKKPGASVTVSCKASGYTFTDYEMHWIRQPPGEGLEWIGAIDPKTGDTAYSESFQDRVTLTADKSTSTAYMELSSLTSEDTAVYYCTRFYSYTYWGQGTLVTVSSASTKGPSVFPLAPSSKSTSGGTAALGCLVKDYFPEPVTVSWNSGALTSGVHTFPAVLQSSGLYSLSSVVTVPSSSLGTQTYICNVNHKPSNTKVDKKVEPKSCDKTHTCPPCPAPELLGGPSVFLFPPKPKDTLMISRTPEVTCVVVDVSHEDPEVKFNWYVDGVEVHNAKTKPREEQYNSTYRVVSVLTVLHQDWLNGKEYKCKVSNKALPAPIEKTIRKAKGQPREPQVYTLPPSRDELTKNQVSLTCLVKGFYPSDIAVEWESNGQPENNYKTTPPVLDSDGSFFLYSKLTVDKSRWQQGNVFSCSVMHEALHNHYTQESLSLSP
light: B1 light
notes: also called Ho Ab S337_12R
B20: GpH7-B3 variant S337_09D/GpL16-k0 (antibody, human IgG1, kappa)
heavy: not shown
light: B1 light
notes: also called Ho Ab S337_09D
B21: GpH7-B3 variant S324_08L/GpL16-k0 (antibody, human IgG1, kappa)
heavy: not shown
light: B1 light
notes: also called Ho Ab S324_08L
B22: GpH7-B3 variant S298_06M/GpL16-k0 (antibody, human IgG1, kappa)
heavy: not shown
light: B1 light
notes: also called Ho Ab S298_06M
B23: GpH7-B3 variant T335_09D/GpL16-k0 (antibody, human IgG1, kappa)
heavy: not shown
light: B1 light
notes: also called Ho Ab T335_09D
B24: GpH7-B3 variant S298_02A/GpL16-k0 (antibody, human IgG1, kappa)
heavy: not shown
light: B1 light
notes: also called Ho Ab S298_02A
B25: GpH7-B3 variant S298_14T/GpL16-k0 (antibody, human IgG1, kappa)
heavy: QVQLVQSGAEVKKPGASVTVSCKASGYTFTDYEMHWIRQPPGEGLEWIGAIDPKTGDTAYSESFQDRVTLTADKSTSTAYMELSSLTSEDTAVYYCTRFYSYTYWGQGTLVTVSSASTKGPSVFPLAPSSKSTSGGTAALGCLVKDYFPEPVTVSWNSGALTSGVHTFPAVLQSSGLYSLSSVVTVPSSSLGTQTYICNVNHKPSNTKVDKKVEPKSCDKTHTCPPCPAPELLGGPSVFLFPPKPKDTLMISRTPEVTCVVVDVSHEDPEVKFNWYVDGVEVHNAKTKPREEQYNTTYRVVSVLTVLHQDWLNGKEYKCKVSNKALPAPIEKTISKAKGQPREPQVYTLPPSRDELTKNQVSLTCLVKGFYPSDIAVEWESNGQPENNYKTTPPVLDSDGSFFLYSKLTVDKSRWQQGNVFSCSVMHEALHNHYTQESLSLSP
light: B1 light
notes: also called Ho Ab S298_14T
B26: GpH7-B3 variant S239_14T/GpL16-k0 (antibody, human IgG1, kappa)
heavy: not shown
light: B1 light
notes: also called Ho Ab S239_14T
B27: GpH7-B3 variant S267_09D/GpL16-k0 (antibody, human IgG1, kappa)
heavy: not shown
light: B1 light
notes: also called Ho Ab S267_09D
B28: GpH7-B3 variant S337_08L/GpL16-k0 (antibody, human IgG1, kappa)
heavy: not shown
light: B1 light
notes: also called Ho Ab S337_08L
B29: GpH7-B3 variant S298_12R/GpL16-k0 (antibody, human IgG1, kappa)
heavy: not shown
light: B1 light
notes: also called Ho Ab S298_12R
B30: GpH7-B3 variant S298_16H/GpL16-k0 (antibody, human IgG1, kappa)
heavy: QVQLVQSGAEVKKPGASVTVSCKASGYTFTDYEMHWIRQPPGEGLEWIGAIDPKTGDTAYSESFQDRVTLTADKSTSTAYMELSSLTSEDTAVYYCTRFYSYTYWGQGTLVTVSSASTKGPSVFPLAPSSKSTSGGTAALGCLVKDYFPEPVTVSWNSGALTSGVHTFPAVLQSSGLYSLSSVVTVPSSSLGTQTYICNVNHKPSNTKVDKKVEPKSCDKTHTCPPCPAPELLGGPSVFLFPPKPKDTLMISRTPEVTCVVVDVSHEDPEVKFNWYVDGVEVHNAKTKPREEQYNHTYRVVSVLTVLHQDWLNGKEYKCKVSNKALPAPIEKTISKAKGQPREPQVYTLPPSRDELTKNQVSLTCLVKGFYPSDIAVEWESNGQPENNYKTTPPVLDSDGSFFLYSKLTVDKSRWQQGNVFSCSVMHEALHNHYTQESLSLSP
light: B1 light
notes: also called Ho Ab S298_16H
B31: GpH7-B3 variant T335_06M/GpL16-k0 (antibody, human IgG1, kappa)
heavy: not shown
light: B1 light
notes: also called Ho Ab T335_06M
B32: GpH7-B3 variant S324_19Q/GpL16-k0 (antibody, human IgG1, kappa)
heavy: not shown
light: B1 light
notes: also called Ho Ab S324_19Q
B33: GpH7-B3 variant T335_10E/GpL16-k0 (antibody, human IgG1, kappa)
heavy: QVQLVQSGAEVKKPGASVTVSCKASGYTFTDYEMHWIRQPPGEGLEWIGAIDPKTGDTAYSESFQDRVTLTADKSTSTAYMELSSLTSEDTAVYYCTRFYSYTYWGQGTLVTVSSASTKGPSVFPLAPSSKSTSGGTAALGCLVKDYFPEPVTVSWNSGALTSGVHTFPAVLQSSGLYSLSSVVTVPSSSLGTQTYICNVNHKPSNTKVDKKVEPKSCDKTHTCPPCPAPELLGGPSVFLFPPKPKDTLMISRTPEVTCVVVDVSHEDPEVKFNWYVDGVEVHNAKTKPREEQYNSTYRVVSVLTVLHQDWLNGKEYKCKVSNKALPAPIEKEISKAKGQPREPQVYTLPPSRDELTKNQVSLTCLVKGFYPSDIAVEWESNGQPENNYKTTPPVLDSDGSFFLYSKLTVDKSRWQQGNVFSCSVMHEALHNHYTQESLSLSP
light: B1 light
notes: also called Ho Ab T335_10E
B34: GpH7-B3 variant S267_08L/GpL16-k0 (antibody, human IgG1, kappa)
heavy: not shown
light: B1 light
notes: also called Ho Ab S267_08L
B35: GpH7-B3 variant T335_07I/GpL16-k0 (antibody, human IgG1, kappa)
heavy: not shown
light: B1 light
notes: also called Ho Ab T335_07I
B36: GpH7-B3 variant T335_04F/GpL16-k0 (antibody, human IgG1, kappa)
heavy: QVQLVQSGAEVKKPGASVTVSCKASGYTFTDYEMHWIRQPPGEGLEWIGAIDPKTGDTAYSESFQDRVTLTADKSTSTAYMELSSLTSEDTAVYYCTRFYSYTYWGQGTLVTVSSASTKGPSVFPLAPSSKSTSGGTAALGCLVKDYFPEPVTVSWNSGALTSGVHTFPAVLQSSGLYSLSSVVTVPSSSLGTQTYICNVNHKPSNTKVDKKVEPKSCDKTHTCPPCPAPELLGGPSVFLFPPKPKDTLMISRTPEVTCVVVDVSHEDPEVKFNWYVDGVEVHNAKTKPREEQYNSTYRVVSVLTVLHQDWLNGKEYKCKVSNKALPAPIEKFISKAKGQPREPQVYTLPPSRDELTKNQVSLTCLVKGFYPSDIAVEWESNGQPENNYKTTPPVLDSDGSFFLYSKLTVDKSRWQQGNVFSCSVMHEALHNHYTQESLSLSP
light: B1 light
notes: also called Ho Ab T335_04F
B37: GpH7-B3 variant S298_18N/GpL16-k0 (antibody, human IgG1, kappa)
heavy: not shown
light: B1 light
notes: also called Ho Ab S298_18N
B38: GpH7-B3 variant T335_05P/GpL16-k0 (antibody, human IgG1, kappa)
heavy: not shown
light: B1 light
notes: also called Ho Ab T335_05P
B39: GpH7-B3 variant S239_19Q/GpL16-k0 (antibody, human IgG1, kappa)
heavy: not shown
light: B1 light
notes: also called Ho Ab S239_19Q
B40: GpH7-B3 variant S324_11K/GpL16-k0 (antibody, human IgG1, kappa)
heavy: not shown
light: B1 light
notes: also called Ho Ab S324_11K
B41: GpH7-B3 variant S337_15Y/GpL16-k0 (antibody, human IgG1, kappa)
heavy: not shown
light: B1 light
notes: also called Ho Ab S337_15Y
B42: GpH7-B3 variant S298_08L/GpL16-k0 (antibody, human IgG1, kappa)
heavy: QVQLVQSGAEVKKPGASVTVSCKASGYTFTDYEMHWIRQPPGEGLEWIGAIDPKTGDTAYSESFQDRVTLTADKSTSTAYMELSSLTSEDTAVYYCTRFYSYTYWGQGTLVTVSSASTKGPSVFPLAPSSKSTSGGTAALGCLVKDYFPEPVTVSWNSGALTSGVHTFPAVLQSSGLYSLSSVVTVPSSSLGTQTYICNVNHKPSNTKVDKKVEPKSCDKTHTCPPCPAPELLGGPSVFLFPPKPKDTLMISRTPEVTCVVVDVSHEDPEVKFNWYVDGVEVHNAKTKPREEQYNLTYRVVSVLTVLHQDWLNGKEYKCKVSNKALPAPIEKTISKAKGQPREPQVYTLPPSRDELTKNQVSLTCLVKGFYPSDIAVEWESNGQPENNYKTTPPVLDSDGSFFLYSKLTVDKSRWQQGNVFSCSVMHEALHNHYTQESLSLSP
light: B1 light
notes: also called Ho Ab S298_08L
B43: GpH7-B3 variant S324_20W/GpL16-k0 (antibody, human IgG1, kappa)
heavy: not shown
light: B1 light
notes: also called Ho Ab S324_20W
B44: GpH7-B3 variant S298_03V/GpL16-k0 (antibody, human IgG1, kappa)
heavy: not shown
light: B1 light
notes: also called Ho Ab S298_03V
B45: GpH7-B3 variant S324_15Y/GpL16-k0 (antibody, human IgG1, kappa)
heavy: not shown
light: B1 light
notes: also called Ho Ab S324_15Y
B46: GpH7-B3 variant S239_18N/GpL16-k0 (antibody, human IgG1, kappa)
heavy: not shown
light: B1 light
notes: also called Ho Ab S239_18N
B47: GpH7-B3 variant S337_06M/GpL16-k0 (antibody, human IgG1, kappa)
heavy: not shown
light: B1 light
notes: also called Ho Ab S337_06M
B48: GpH7-B3 variant S324_02A/GpL16-k0 (antibody, human IgG1, kappa)
heavy: not shown
light: B1 light
notes: also called Ho Ab S324_02A
B49: GpH7-B3 variant S298_19Q/GpL16-k0 (antibody, human IgG1, kappa)
heavy: not shown
light: B1 light
notes: also called Ho Ab S298_19Q
B50: GpH7-B3 variant T335_08L/GpL16-k0 (antibody, human IgG1, kappa)
heavy: not shown
light: B1 light
notes: also called Ho Ab T335_08L
B51: GpH7-B3 variant S267_01G/GpL16-k0 (antibody, human IgG1, kappa)
heavy: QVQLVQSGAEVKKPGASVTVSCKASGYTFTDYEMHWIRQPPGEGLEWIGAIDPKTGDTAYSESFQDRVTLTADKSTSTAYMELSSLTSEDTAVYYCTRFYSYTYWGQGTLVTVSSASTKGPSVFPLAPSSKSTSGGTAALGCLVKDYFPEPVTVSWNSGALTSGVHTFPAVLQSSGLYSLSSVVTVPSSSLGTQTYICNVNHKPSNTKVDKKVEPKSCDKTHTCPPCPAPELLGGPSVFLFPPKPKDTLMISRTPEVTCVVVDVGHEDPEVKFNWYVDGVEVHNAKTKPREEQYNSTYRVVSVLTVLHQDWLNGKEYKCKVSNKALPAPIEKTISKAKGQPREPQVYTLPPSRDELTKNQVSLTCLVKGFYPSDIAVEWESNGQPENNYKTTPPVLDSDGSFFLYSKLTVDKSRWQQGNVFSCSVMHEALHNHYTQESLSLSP
light: B1 light
notes: also called Ho Ab S267_01G
B52: GpH7-B3 variant S324_16H/GpL16-k0 (antibody, human IgG1, kappa)
heavy: not shown
light: B1 light
notes: also called Ho Ab S324_16H
B53: GpH7-B3 variant S298_15Y/GpL16-k0 (antibody, human IgG1, kappa)
heavy: not shown
light: B1 light
notes: also called Ho Ab S298_15Y
B54: GpH7-B3 variant S267_16H/GpL16-k0 (antibody, human IgG1, kappa)
heavy: not shown
light: B1 light
notes: also called Ho Ab S267_16H
B55: GpH7-B3 variant S267_02A/GpL16-k0 (antibody, human IgG1, kappa)
heavy: not shown
light: B1 light
notes: also called Ho Ab S267_02A
B56: GpH7-B3 variant S298_20W/GpL16-k0 (antibody, human IgG1, kappa)
heavy: not shown
light: B1 light
notes: also called Ho Ab S298_20W
B57: GpH7-B3 variant S239_09D/GpL16-k0 (antibody, human IgG1, kappa)
heavy: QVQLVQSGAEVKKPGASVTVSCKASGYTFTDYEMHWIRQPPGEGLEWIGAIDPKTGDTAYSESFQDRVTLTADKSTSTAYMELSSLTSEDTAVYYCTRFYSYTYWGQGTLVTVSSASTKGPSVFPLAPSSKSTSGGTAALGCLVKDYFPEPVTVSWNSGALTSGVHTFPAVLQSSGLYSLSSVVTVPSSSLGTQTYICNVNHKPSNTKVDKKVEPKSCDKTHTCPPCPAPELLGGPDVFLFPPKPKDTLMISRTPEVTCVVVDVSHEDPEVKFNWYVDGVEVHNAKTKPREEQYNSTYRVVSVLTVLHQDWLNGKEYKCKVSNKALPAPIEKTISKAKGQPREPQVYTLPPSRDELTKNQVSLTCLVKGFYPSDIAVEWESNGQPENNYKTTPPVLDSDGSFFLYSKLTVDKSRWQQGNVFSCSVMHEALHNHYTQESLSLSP
light: B1 light
notes: also called Ho Ab S239_09D; GpH7-B3-06-09D/GpL16-k0

Each binder was assayed against T1, FcγRIa (human, UniProt P12314 16-292) (assay: SPR (Biacore); Ho Ab vs HoCon Ab GpH7-B3/GpL16-k0).
T1 construct: extracellular domain; Soluble extracellular domain expressed in FreeStyle293 cells, used as analyte in Biacore; also called FcgRI; 1a; not shown: His tag attached to the C terminus
Description: Analysis of interaction between objective antibody and the FcγR was carried out using Biacore T100 (GE Healthcare). HBS-EP+ (GE Healthcare) was used as the running buffer, and the measurement temperature was set to 25° C. Chips produced by immobilizing the antigen peptide by the amine coupling method to a Series S Sencor Chip CM5 (GE Healthcare), or alternatively, chips produced by allowing preliminarily biotinylated antigen peptides to interact with and immobilize onto a Series S Sensor Chip SA (certified) (GE Healthcare) were used. Antibodies of interest were captured onto an antigen peptide-immobilized chip, and allowed to interact to each FcγR diluted with running buffer. To regenerate and repeatedly use the chip, the antibodies captured on the chip were washed off by reacting 10 mM glycine-HCl, pH 1.5.

T1 sequence (P12314 16-292): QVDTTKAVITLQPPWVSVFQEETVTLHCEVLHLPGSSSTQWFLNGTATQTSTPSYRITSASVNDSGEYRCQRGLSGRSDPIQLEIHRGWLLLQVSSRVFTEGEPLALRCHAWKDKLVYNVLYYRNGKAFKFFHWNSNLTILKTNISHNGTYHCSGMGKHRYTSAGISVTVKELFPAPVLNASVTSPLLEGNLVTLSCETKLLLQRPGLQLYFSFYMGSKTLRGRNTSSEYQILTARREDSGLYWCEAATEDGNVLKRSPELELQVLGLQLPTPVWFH

Ho/Con_1a	Binder
101 relative binding, control = 100	B1
105 relative binding, control = 100	B2
104 relative binding, control = 100	B3
101 relative binding, control = 100	B4
103 relative binding, control = 100	B5
111 relative binding, control = 100	B6
106 relative binding, control = 100	B7
102 relative binding, control = 100	B8
107 relative binding, control = 100	B9
103 relative binding, control = 100	B10
112 relative binding, control = 100	B11
103 relative binding, control = 100	B12
105 relative binding, control = 100	B13
104 relative binding, control = 100	B14
105 relative binding, control = 100	B15
102 relative binding, control = 100	B16
105 relative binding, control = 100	B17
103 relative binding, control = 100	B18
105 relative binding, control = 100	B19

Ho/Con_1a	Binder
106 relative binding, control = 100	B20
103 relative binding, control = 100	B21
106 relative binding, control = 100	B22
107 relative binding, control = 100	B23
106 relative binding, control = 100	B24
106 relative binding, control = 100	B25
101 relative binding, control = 100	B26
106 relative binding, control = 100	B27
105 relative binding, control = 100	B28
94.5 relative binding, control = 100	B29
107 relative binding, control = 100	B30
106 relative binding, control = 100	B31
111 relative binding, control = 100	B32
108 relative binding, control = 100	B33
99.9 relative binding, control = 100	B34
105 relative binding, control = 100	B35
105 relative binding, control = 100	B36
104 relative binding, control = 100	B37
106 relative binding, control = 100	B38

Ho/Con_1a	Binder
93.4 relative binding, control = 100	B39
100 relative binding, control = 100	B40
104 relative binding, control = 100	B41
104 relative binding, control = 100	B42
112 relative binding, control = 100	B43
106 relative binding, control = 100	B44
112 relative binding, control = 100	B45
97.9 relative binding, control = 100	B46
102 relative binding, control = 100	B47
103 relative binding, control = 100	B48
105 relative binding, control = 100	B49
105 relative binding, control = 100	B50
102 relative binding, control = 100	B51
111 relative binding, control = 100	B52
103 relative binding, control = 100	B53
98.2 relative binding, control = 100	B54
108 relative binding, control = 100	B55
71.5 relative binding, control = 100	B56
101 relative binding, control = 100	B57
